In the nanobody polyreactivity screen of Harvey et al. (2022):

Test: yeast display, Sf9 membrane polyspecificity reagent, FACS + sequencing; frameworks hold sequencing errors
In short: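 A nanobody's polyreactivity label depends on the gate it was sorted from. Yeast display cells were stained with 10% biotinylated, detergent-solubilized Sf9 membrane reagent for 1 hour at 4 °C, enriched on streptavidin microbeads and sorted by FACS. The low and high (top ~1%) gates were set on anti-HA fluorescence for expression and streptavidin fluorescence for reagent binding.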

Row | Sequence | polyreactivity (PSR sort gate)
1 | QVQLVESGGGLVQAGGSLRLSCAASGFIFASYAMGWYRQAPGKERELVAAISSRGGRTYYADSVKGRFTISRDNAKNTVSLQMNSLKPEDTAVYYCAAENYWLAWYKGYDYCGQGTQVTVSS | high polyreactivity
2 | QVQLVESGGGLVQAGGSLRLSCAASGFIFATNAMGWYRQAPGKERELVAAISRSGGSTYYADSVKGRFTISRDNAKNTVYLQMYSLKPEDTAVYYCATPRYRYYTIYDYGYWGQGTQVNVSS | high polyreactivity
3 | QVQLVESGGGLVQAGGSLRLSCAASGFIFATNTMGWYRQAPGKERELVAASSTYYADSVKGRFTISRDNAKNTVYLQMNSLKPEDTAVYYCNADRDSYIGFVVWAGEYWGQGSQVTVSS | low polyreactivity
4 | QVQLVESGGGLVQAGGSLRLSCAASGFIFAVYAMGWYRQAPGKERELVARISSGRGSTYYADSVKGRFTISRDNAKNTVYFQMNSLKPEDTAVYYCAADPVHRFPGTGGYWGQGTQVTVSS | low polyreactivity
5 | QVQLVESGGGLVQAGGSLRLSCAASGFIFAWNDMGWYRQAPGKERELVAAISSGTSTNYADSVKGRFTISRDNAKNTVYLQMNSLKPEDTGVYYCNVDSPLQPYRYYYWGQGSQVTVSS | low polyreactivity
6 | QVQLVESGGGLVQAGGSLRLSCAASGFIFAWYAMGWYRQAPGKERELVADITSGGDTSYADSVKGRFTISLDNAKNTVYLQMNSLKPEDTAVYYCAAVWEPWNIRLVLTAVDYWGQGTQVTVSS | low polyreactivity
7 | QVQLVESGGGLVQAGGSLRLSCAASGFIFAYNAMGWYRQAPGKEREFVAAISRSGGSTRYADSVKGRFTISRDNAKNTVYLQMNSLKPEDTAVYYCAARSGSWGQGTQVTVSS | high polyreactivity
8 | QVQLVESGGGLVQAGGSLRLSCAASGFIFAYNAMGWYRQAPGKERELVAAISRSGGSTRYADSVKGRFTISRDNAKNTVYLQMNSLKPEDTAVYYCAARSGSWGQGTQVTVSS | high polyreactivity
9 | QVQLVESGGGLVQAGGSLRLSCAASGFIFAYNAMGWYRQAPGKERELVAAISWSGGSTYYADSVKGRFTISRDNAKNTVYLQMNSLKPEDTAVYYCNAFSYYGARYDYWGLGTQVTVSS | high polyreactivity
10 | QVQLVESGGGLVQAGGSLRLSCAASGFIFAYNAMGWYRQAPGKERELVAGISRRGGSTYYADSVKGRFTISRDNAKNTVYLQMNSLKPEDTAVYYCAADSFTYWSWLHGYWGQGTQVTVSS | high polyreactivity
11 | QVQLVESGGGLVQAGGSLRLSCAASGFIFAYNAMGWYRQAPGKERELVASIRTRAGSTYYADSVKGRFTISRDNAKNTDYLQMNSLKPADTAVYYSAARPFPRRYDYWGQGTQVTVSS | low polyreactivity
12 | QVQLVESGGGLVQAGGSLRLSCAASGFIFAYYAMGWYRQAPGKERELVAAISQIGGRTYYADSVKGRFTISRDNAKNTVYLQMNSLKPEDTAVYYCAKAGAYKYGYWGQGTQVTVSS | high polyreactivity
13 | QVQLVESGGGLVQAGGSLRLSCAASGFIFAYYAMGWYRQAPGKERELVAAITWSGGITYYADSVKGRFTISRDNAKNTVYLQMNSLKPEDTAVYYCNRAWSSHRYYYWGQGTQVTVSS | high polyreactivity
14 | QVQLVESGGGLVQAGGSLRLSCAASGFIFDAYAMGWYRPAPGKEREFVAGISIGGRTNYADSVKGRFTISRDNAKNTVYLQMNSLKPEDSAVYYCAARNYRYYYGSYFRGPITNYEYWGQGTQVTVSS | low polyreactivity
15 | QVQLVESGGGLVQAGGSLRLSCAASGFIFDDNAMGRYRQAPGKERELVAAITSGGGSTYYADSVKGRFTISRDNAKNTVYLQMNSLKPEDNAVYYCNAVPSQHVEFDYWGQGTQVTVSS | low polyreactivity
16 | QVQLVESGGGLVQAGGSLRLSCAASGFIFDDNSMGWYRQAPGTEREFVAAISQGAGSTYYADSVKGRFTISRDTAKNTVNLQMNSLKPEDTAVYYCNNGRPKYWYGYKYDYWGHGTQVTVSS | low polyreactivity
17 | QVQLVESGGGLVQAGGSLRLSCAASGFIFDFYAMGWYRQAPGKERELVADITGGGSTYYADSVKGRFTISRDNAKNTVYLQMNSLKPEDTAVYYCAASYGVYWYSFWYHVAWYDYWGQGTQVTVSS | low polyreactivity
18 | QVQLVESGGGLVQAGGSLRLSCAASGFIFDFYTMGWYRQATGKESELVAAITWSGDSTYYADSVKGRFTISRDNAKNTVYLQMNSLKPEDTAVYYCAADWWGVWYFDYDYWGQGTQVTVSS | low polyreactivity
19 | QVQLVESGGGLVQAGGSLRLSCAASGFIFDGYAMGWYRQAPGKERELVAAIDSGGDRTYYADSVKGRFTISRDNAKYTVYLQMNSLKPEDTAVYYCAADSSDPTGYDYWGQGTQVTVSS | low polyreactivity
20 | QVQLVESGGGLVQAGGSLRLSCAASGFIFDHYAMGWYRQAPGKERELVAAISGSGGSTYYADSVKGRFPISRDNAKNTVYLQMNSLKPEDTAVYYCAARPGSKYAQRGYWGQGTHVTVSS | high polyreactivity
21 | QVQLVESGGGLVQAGGSLRLSCAASGFIFDINAIGWYRQAPGKERELVAAISYSGGSTYYADSVKGRFTISRDNAKNTVYLQMNSLKPEDTAVYYCAADSGPDSDEGDYWGQGTQVTVSS | low polyreactivity
22 | QVQLVESGGGLVQAGGSLRLSCAASGFIFDIYAMGWYRQAPGKERELVASITWDDGSTYYADSVKGRFTISRDNAKNTVYLQMNRLKPVDTAVYYCAADFEAGGYSLDYWGQGTQVTVSS | low polyreactivity

Row | Sequence | polyreactivity (PSR sort gate)
23 | QVQLVESGGGLVQAGGSLRLSCAASGFIFDLYAMGWSRQAPGKERELVAAITYSGGSTYYADSVKGRFTISRDNAKNTVYLQMNSLKPEDTAVYYCAAYYGGRGYWGQGTQVTVSS | low polyreactivity
24 | QVQLVESGGGLVQAGGSLRLSCAASGFIFDPYAMGWYRQAPGKERELVAAISDGGSTNYADSVKGRFTISRDNAKNTVYLQMNSLKPEDTAVYYCAVEYWYVWVTFDYWGQGTQVTVSS | low polyreactivity
25 | QVQLVESGGGLVQAGGSLRLSCAASGFIFDQYAMGWYRQAPGKERELVATITSDGDTYYADSVKGRFTISRDNAKNTVYLHMISLKPEDSAVYYCAVEPGPYTTGYDYWGQGTQVTVSS | low polyreactivity
26 | QVQLVESGGGLVQAGGSLRLSCAASGFIFDRNAMGWYRQAPGKERELVAAISKSGGSTYYADSVKGRFSISRDNAKNTVYLQMNSLKPEDTAVYYCAADRPTIRYNSWGQGTQVTVSS | high polyreactivity
27 | QVQLVESGGGLVQAGGSLRLSCAASGFIFDRNTMGWYRQAPGKERELVAAISRSGGSTYYADSVKGRFTISRDNAKNTVYLLMNSLKPEDSAVYYCAALYYYRNRSYDYWGQGTQVTVSS | high polyreactivity
28 | QVQLVESGGGLVQAGGSLRLSCAASGFIFDTYVRGWYRQAPGKERELVAAISRTGGRTYYADSVKGRFTISRDNAKNTLYLQMNSLKPEDTAVYYCAARQSTQSGSYRRYNYWGQGTQVTVSS | high polyreactivity
29 | QVQLVESGGGLVQAGGSLRLSCAASGFIFDVYAMGWYRQAPGKERELVAAITSGDGTNYADSVKGRFTISRDNAKNTVYLQMNSLKPEDTAVYYCAADDGVTYRGIIFSYWGQGTQVTVSS | low polyreactivity
30 | QVQLVESGGGLVQAGGSLRLSCAASGFIFDWNTMGWYRQAPGKERELVAAITESSGSTYYADSVKGRFTISRDNAKNTVYLQMNSLKPEDTAVYDCAADFSYVYYLYDYWGQGTQVTVSS | low polyreactivity
31 | QVQLVESGGGLVQAGGSLRLSCAASGFIFDWNTMGWYRQAPGKERELVAAITESSGSTYYADSVKGRFTISRDNAKNTVYLQMNSLKPEDTAVYYCAADLDVYVSIGSRFHFDYWGQGTQVTVSS | low polyreactivity
32 | QVQLVESGGGLVQAGGSLRLSCAASGFIFDWNTMGWYRQAPGQERELVAAITESSGSTYYADSVKGRFTISRDNAKNTVYLQMNSLKPEDTAVYYCAAESLISWRYDYWGQGTQVTVSS | low polyreactivity
33 | QVQLVESGGGLVQAGGSLRLSCAASGFIFDWYTMGWYRQAPGKERELVAAITIGGSTDYADSVKGRFTISRDNAKNTVYLLMNSLKPEDTAVYYCNALWYLSGTWYDYWGQGTQVTVSS | low polyreactivity
34 | QVQLVESGGGLVQAGGSLRLSCAASGFIFDYYAMGWYRQAPGKERELVAAITSRSGSTYYADSVKGRFTISRDNAKNTVYLQMNSLKPEDTAVYYCAAVYPDYSSARYDYWGQGTQVTVSS | high polyreactivity
35 | QVQLVESGGGLVQAGGSLRLSCAASGFIFEDYAMGWYTQATGKERELVAAITWRGGRTYYADSVKGRFTISRDNAKNTVYLQMNSLKPEDTAVYYCRPQVYSYASRYGYWGQGTQVTVLS | low polyreactivity
36 | QVQLVESGGGLVQAGGSLRLSCAASGFIFEGYAMGWYRQAPGKERELVAAISRGGGSTYYADSVKGRFTISRDNAKNTVYLQMNSLKPEDTAVYSCATGGYYHYTGVKMYYWGQGTQVTVSS | high polyreactivity
37 | QVQLVESGGGLVQAGGSLRLSCAASGFIFEKYTMGWYRQAPGKERELVAAITWNGGSTYYADSVKGRFTISRDNAKNTVYLQMNSLKPEDTAVYYCAARVGWNKRRYDYWGQGTQVNVSS | low polyreactivity
38 | QVQLVESGGGLVQAGGSLRLSCAASGFIFETYVMGWYRQAPGKVRALVAAISGGGSTYYADSVKGRFTMSRDNAKNTVYLQMNSLKPEDTAVYYCAAGSWRARSYYHYYYWGQGTQVTVSS | high polyreactivity
39 | QVQLVESGGGLVQAGGSLRLSCAASGFIFEWNGMGWYRQAPGKERELVAAITWSGGSTYYADSVKGRFTISRDNAKYTVYLHMNSLKPEDTAVYYCAADFPEYYLPYDYWGQGTQVTVSS | low polyreactivity
40 | QVQLVESGGGLVQAGGSLRLSCAASGFIFEWYAMGWYRQAPGKERELVAGIDSGSTYADSVKGRFTISRDNAKNTVYLQMNSLKPEDTAVYYCAKRSDAVIQRTYRYDYWGQGTQVTVSS | low polyreactivity
41 | QVQLVESGGGLVQAGGSLRLSCAASGFIFEYYAMGWYRQAPGKERELVAAINGGGGNTYYADSVKGRFTISRDNAKNTVYLQMNSLKPEDTAVYYCNAKRRKYRYDYWGQGTEVTVSS | high polyreactivity
42 | QVQLVESGGGLVQAGGSLRLSCAASGFIFEYYAMGWYRQAPGKERELVAAISSSGGSTYYADSVKGRFTISRDNAKNTVYLQMNSLKPEDTAVYYCAKDYAPSATKLHYWGQGTQVTVSS | low polyreactivity
43 | QVQLVESGGGLVQAGGSLRLSCAASGFIFFKYAMGWYRQAPGKERELVAGITSGGSTYYADSVKGRFTISRDNAKNTVYLQMNSLKPEDTAVYYCAAYVKRESAPYGYWGQGTQVTVSS | low polyreactivity
